Publication PMC7067851, “Formation of pre-pore complexes of pneumolysin is accompanied by a decrease in short-range order of lipid molecules throughout vesicle bilayers” (Scientific Reports, 2020)

B1: pneumolysin point mutant D205R (natural protein, Streptococcus pneumoniae, UniProt Q04IN8 1-471, looked up)
chain: MANKAVNDFILAMNYDKKKLLTHQGESIENRFIKEGNQLPDEFVVIERKKRSLSTNTSDISVTATNDSRLYPGALLVVDETLLENNPTLLAVDRAPMTYSIDLPGLASSDSFLQVEDPSNSSVRGAVNDLLAKWHQDYGQVNNVPARMQYEKITAHSMEQLKVKFGSDFEKTGNSLDIDFNSVHSGEKQIQIVNFKQIYYTVSVRAVKNPGDVFQDTVTVEDLKQRGISAERPLVYISSVAYGRQVYLKLETTSKSDEVEAAFEALIKGVKVAPQTEWKQILDNTEVKAVILGGDPSSGARVVTGKVDMVEDLIQEGSRFTADHPGLPISYTTSFLRDNVVATFQNSTDYVETKVTAYRNGDLLLDHSGAYVAQYYITWDELSYDHQGKEVLTPKAWDRNGQDLTAHFTTSIPLKGNVRNLSVKIRECTGLAWEWWRTVYEKTDLPLVRKRTISIWGTTLYPQVEDKVEND
notes: pneumolysin (PLY), Streptococcus pneumoniae, with D205R in domain 1; also called PLY D205R; source: purified
B2: pneumolysin point mutant T304R (natural protein, Streptococcus pneumoniae, UniProt Q04IN8 1-471, looked up)
chain: MANKAVNDFILAMNYDKKKLLTHQGESIENRFIKEGNQLPDEFVVIERKKRSLSTNTSDISVTATNDSRLYPGALLVVDETLLENNPTLLAVDRAPMTYSIDLPGLASSDSFLQVEDPSNSSVRGAVNDLLAKWHQDYGQVNNVPARMQYEKITAHSMEQLKVKFGSDFEKTGNSLDIDFNSVHSGEKQIQIVNFKQIYYTVSVDAVKNPGDVFQDTVTVEDLKQRGISAERPLVYISSVAYGRQVYLKLETTSKSDEVEAAFEALIKGVKVAPQTEWKQILDNTEVKAVILGGDPSSGARVVRGKVDMVEDLIQEGSRFTADHPGLPISYTTSFLRDNVVATFQNSTDYVETKVTAYRNGDLLLDHSGAYVAQYYITWDELSYDHQGKEVLTPKAWDRNGQDLTAHFTTSIPLKGNVRNLSVKIRECTGLAWEWWRTVYEKTDLPLVRKRTISIWGTTLYPQVEDKVEND
notes: pneumolysin (PLY), Streptococcus pneumoniae, with T304R in domain 3; also called PLY T304R; source: purified

Target: the molecule itself
Assay: negative-stain transmission electron microscopy; protein incubated with unilamellar liposomes (1:1 POPC/chol), stained with 1% w/v uranyl acetate on a copper grid; membrane-bound oligomeric structures visualised

Protein | binding result
B1 | binds
B2 | binds
